Source: US20240002500A1 (GUANGDONG FAPON BIOPHARMA, published 2024)

Legend:
[1] = molecular target: T1, full-length human TIGIT on cells (human, UniProt Q495A1 22-244); experiment: FACS titration on CHO-hTIGIT cells, PE goat anti-mouse IgG
T1 construct: whole, on cells; The same protein is used for CHO-hTIGIT, PBMC and NK92-hTIGIT; the cells are named under assay; also called CHO-hTIGIT; hTIGIT
T1 sequence (looked up): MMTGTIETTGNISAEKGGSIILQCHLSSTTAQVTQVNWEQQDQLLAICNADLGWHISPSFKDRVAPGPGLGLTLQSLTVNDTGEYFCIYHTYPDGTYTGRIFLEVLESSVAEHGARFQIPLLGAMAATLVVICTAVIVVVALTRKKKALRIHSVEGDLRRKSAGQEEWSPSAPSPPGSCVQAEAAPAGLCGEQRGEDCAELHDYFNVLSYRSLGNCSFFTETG
Experimental: The CHO-engineered cells CHO-hTIGIT cells recombinantly expressing full-length human TIGIT to be detected were counted, centrifuged at 300 g for 5 min, resuspended in an FCM buffer and cell density was adjusted to 4E+06 cell/mL for later use. A sample to be detected (including a positive control antibody and a mouse monoclonal antibody) was diluted with the FCM buffer to 20 μg/mL, and then the FCM buffer was used to perform 3× serial dilutions of 12 concentration points; and the isotype control antibody was diluted with the FCM buffer to 20 μg/mL. According to an experimental design, in each well, 50 μL of the antibody and 50 μL of the cell (the amount of each cell added into a 96-well V-shaped plate being 2E+05 cells/well) were respectively added in the 96-well V-shaped plate; and incubation in dark was performed on ice for 30 min. Centrifugation (300 g/5 min) was performed; supernatant was discarded; 200 μL of the FCM buffer was added for washing once; centrifugation (300 g/5 min) was performed; and the supernatant was discarded. […] Centrifugation (300 g/5 min) was performed; supernatant was discarded; 200 μL of the FCM buffer was added once for washing once; centrifugation (300 g/5 min) was performed; and the supernatant was discarded. 100 μL of the 1×PBS was added for resuspending, and on-machine detection was performed.

[2] = molecular target: T2, human Tigit extracellular domain recombinant protein hTigit-his (self-produced) (human, UniProt Q495A1 22-141); experiment: BLI (ForteBIO QKe), hTigit-his on anti-Penta-HIS sensor, antibody in solution
T2 construct: extracellular domain; Self-produced; used in the KD analysis of Embodiment 4; also called human Tigit recombinant protein; not shown: his tag
T2 sequence (looked up): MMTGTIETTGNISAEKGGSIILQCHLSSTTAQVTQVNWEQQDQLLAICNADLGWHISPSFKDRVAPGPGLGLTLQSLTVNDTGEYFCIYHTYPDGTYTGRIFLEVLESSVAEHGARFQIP
Experimental: Binding kinetic constant analysis was performed on an anti-hTigit antibody and hTigit with an MD ForteBIO QKe platform.

[3] = molecular target: T3, human Tigit extracellular domain recombinant protein hTigit-his (Acrobiosystem, Cat.TIT-H2H3) (human, UniProt Q495A1 22-141); experiment: BLI epitope binning (ForteBIO QKe), hTigit-his on anti-Penta-HIS sensor; competitor R0300
T3 construct: extracellular domain; Bought; not shown: his tag
T3 sequence (looked up): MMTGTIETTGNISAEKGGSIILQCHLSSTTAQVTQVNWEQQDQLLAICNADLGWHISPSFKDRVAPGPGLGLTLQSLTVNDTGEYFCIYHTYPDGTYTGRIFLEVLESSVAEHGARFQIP
Experimental: Epitope competition analysis was performed on an anti-human TIGIT antibody with an MD ForteBIO QKe platform. An experimental method included: a human Tigit extracellular domain recombinant protein hTigit-his (Acrobiosystem, Cat.TIT-H2H3, lot-1336-76GF1-F9) carrying a his tag was diluted with an equilibration buffer (1×PBS+0.02% Tween 20), until the final concentration was 1.5 μg/ml. The anti-human Tigit antibody was diluted with the equilibration buffer (1×PBS+0.02% Tween 20), the final concentration being 5 μg/ml. After an anti-Penta-HIS biosensor (ForteBIO, Cat. 18-5122) was fully hydrated, first the hTigit-his recombinant protein was solidified for 180 seconds, then equilibrated for 30 seconds, and bound to the first anti-human Tigit antibody for 180 seconds, then equilibrated for 30 seconds, and then bound to the second anti-human Tigit antibody, binding time being 300 seconds. The whole reaction was performed at 25° C. and 1000 rpm; and finally, Octet analysis software was used to perform epitope binning analysis.

[4] = molecular target: T1, full-length human TIGIT on cells; experiment: FACS blocking: antibody on CHO-hTIGIT cells, then hPVR-hFc, PE anti-human IgG Fc; blocked ligand hPVR-hFc
Experimental: The CHO-engineered cells CHO-hTIGIT cells recombinantly expressing full-length human TIGIT were counted, and centrifugated at 300 g for 5 min, resuspended with an FCM buffer, and cell density was adjusted to 4E+06 cell/mL for later use. […] According to an experimental design, in each well, 50 μL of the antibody and 50 μL of the cell (the volume of each cell added into a 96-well V-shaped plate being 2E+05 cell/well) were respectively added in the 96-well V-shaped plate; and incubation was performed in dark on ice for 30 min. The ligand protein was added to the 96-well V-shaped plate (in 50 μL/well); and incubation was performed in dark on ice for 30 min. Centrifugation (300 g/5 min) was performed; supernatant was discarded; 200 μL of the FCM buffer was added for washing once; centrifugation (300 g/5 min) was performed; and the supernatant was discarded. Secondary antibodies (PE anti-human IgG Fc, 1:500 dilution) were added to the 96-well V-shaped plate (in 100 μL/well); and incubation was performed in dark on ice for 30 min. Centrifugation (300 g/5 min) was performed; supernatant was discarded; 200 μL of the FCM buffer was added for washing once; centrifugation (300 g/5 min) was performed; and the supernatant was discarded. 100 μL of the 1×PBS was added for resuspending, and on-machine detection was performed.

Binder	EC50 [1]	Kd [2]	epitope binning signal (name and unit not given) [3]	IC50 (read off the curve) [4]
14Tigit-1-1 mouse monoclonal antibody (antibody, V domains shown, Mouse monoclonal antibody from hybridoma) VH: DVQLQESGPGLVKPSQSLSLTCTVTGYSITSDYAWNWIRQFPGNKLEWMGYISYSGSTRSNPSLKSRISITRDTSKNQFFLQLNSMTAEDTATYYCGGWEVRNYYAMDYWGQGTSVTVSS VL: DIVMTQSHKFMSTSVGDRVSITCKASQHVSTAVAWYQQKPGQSPKLLIYSASYRYTGVPDRFTGSGSGTDFTFTISSVQAEDLAVYYCQQHYNTPWTFGGGTKLEIKR	0.452 nM	0.172 nM		
3Tigit-12 mouse monoclonal antibody (antibody, V domains shown, Mouse monoclonal antibody from hybridoma) VH: QVQLQQSGAELVRPGTSVKMSCKAAGYTFTNYWIGWVKQRPGHGLEWIGDIYPGGGYTNYDEKFKGKATLTADTSSRTAYMQLSSLTSEDSAIYHCVNGGYGSTYGYFDVWGAGTTVTVSS VL: DIVMSQSPSSLPVSVGEKVTMSCKSSQSLLFSSDQKNYLAWYQQKPGQSPKLLIYWASTRESGVPDRLTGSGSGTDFTLTISSVKAEDLAVYYCQQYHKYPFTFGGGTKLEIKR	0.473 nM	0.119 nM	0.0196	
3Tigit-29 mouse monoclonal antibody (antibody, V domains shown, Mouse monoclonal antibody from hybridoma) VH: EVQLQQSGPELVKPGASVKISCKASGYTFTDYNMHWVKQSLGKSLEWIGYVNSFNGNTGYSQKFKSKVTLTVDRSSRTAYMDLRSLTSEDSAVFYCARSSRGGFAYWGQGTLVTVSA VL: QIVLTQSPAIMSASPGEKVTMTCSASSSVSYMHWYQQKSGTSPKRWIYDTSKLASGVPARFSGSVSGTSYSLTISSMEAEDAATYYCQQWSSNSLTFGAGTKLELKR	0.388 nM	0.155 nM	0.0254	~0.3 nM

The remaining binders from weak to strong by EC50 [1], led by results:

EC50 [1]	Kd [2]	epitope binning signal (name and unit not given) [3]	IC50 (read off the curve) [4]	Binder
0.383 nM	0.202 nM	0.0157	~0.3 nM	3Tigit-16 mouse monoclonal antibody (antibody, V domains shown, Mouse monoclonal antibody from hybridoma) VH: EVQLQQSGPELVKPGASVKMSCKASGFTFTDYFMDWVKQSRGASFEWIGRLNPNNGRTSYNQKFKGKATLTVDKSSSTAYMELNSLTSEDSAVYYCARGDLGRWYFDVWGAGTTVTVSS VL: QIVLTQSPAIMSASPGEKVTMTCSASSSVSYMHWYQQKSGTSPKRWIYDTSKLASGVPTRFSGSGSGTSYSLTISSMEAEDAASYFCQQWSSNSLTFGAGTKLELKR
0.197 nM	0.0605 nM	0.668	~0.3 nM	Tigit-5 mouse monoclonal antibody (antibody, V domains shown, Mouse monoclonal antibody from hybridoma) VH: QVQLQQPGAELVRPGASVKLSCKASGYSFTSYWMNWVKQRPGQGLEWIGMIRPSDSETRLNQMFKDKATLTVDKSSSTAYMQLSSPTSDDSAVYYCAGIHDYGHGAYWGQGTLVTVSA VL: DIQMIQSPASLSVSVGETVTITCRASENIYSNLAWYQQKQGKSPQLLVYAASHLPDGVPSRFSGSGSGTQYSLKINSLQSEDFGSYYCQHFWGTPRTFGGGTKLEIKR
